Assay results as given in article PMC7338535 (Scientific Reports, 2020).

Molecular target: the molecule itself
Assay: crystal structure; apo DiB3, crystals grown at 21 °C in 0.8 M sodium citrate, 50 mM sodium borate, 0.1 sodium acetate, pH 3.5; one chain in the asymmetric unit, dimer with a crystallographic symmetry mate

B1: DiB3 (natural protein)
chain: LESTSLYKKSSSTPPRGVTVVNNFDAKRYLGTWYEIARFDHRFERGLEKVTATYSLRDDGGLNFINKGYNPDRGMWQQSEGKAYFTGAPTRAALKVSFFGPFYGGYNVIALDREYRHALVCGPDRDYLWIQSRTPTISDEVKQEMLAVATREGFDVSKFIWVQQPGS
  stoichiometry N: 2
